This is an account of results in the supplement of paper PMC5998384.

Data set [1] relates to HeLa Kyoto. The data set can be described thus: solubility change mitosis vs G1/S (difference of NP-40 vs SDS log2 ratios) (log2 ratio difference); higher = more soluble in mitosis.
Data set [2] deals with HeLa Kyoto. The data set is described as follows: solubility in G1/S (NP-40 vs SDS abundance) (log2 ratio); higher = more soluble. The settings on record: cell cycle stage: G1/S.
The subject of data set [3] is HeLa Kyoto. The data set is described as follows: thermal stability score vs G1/S (z-score of summed log2 fold changes over temperatures); higher = more thermally stable than in G1/S.
Data set [4] deals with HeLa Kyoto. The data set can be described thus: melting temperature (median over replicates), in situ; higher = more thermally stable.
Where [5] appears, read: cell cycle stage: early G1 (4.5 h after nocodazole release).
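Wherever melting temperature (median over replicates), in situ is given: HeLa Kyoto cells synchronized by double thymidine or nocodazole block, proteins quantified by TMT10plex mass spectrometry, three independent biological replicates.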
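Wherever solubility change mitosis vs G1/S (difference of NP-40 vs SDS log2 ratios) is given: synchronized HeLa Kyoto cells (double thymidine block for G1/S, nocodazole release for mitosis), protein amounts in NP-40 versus SDS lysates quantified by mass spectrometry, three biological replicates.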
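Wherever solubility in G1/S (NP-40 vs SDS abundance) is given: HeLa Kyoto cells arrested at G1/S by double thymidine block, proteins quantified by TMT10plex mass spectrometry in mild NP-40 versus SDS extracts, three biological replicates.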
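Wherever thermal stability score vs G1/S (z-score of summed log2 fold changes over temperatures) is given: synchronized HeLa Kyoto cells, proteins quantified by TMT10plex mass spectrometry, three biological replicates, mitosis taken 0.5 h after nocodazole release, G1/S directly after double thymidine block.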

In the case of “MEFYESAYFIVLIPSIVITVIFLFFWLFMKETLYDEVLAKQKREQKLIPTKTDKKKAEKKKNKKKEIQNGNLHESDSESVPRDFKLSDALAVEDDQVAPVPLNVVETSSSVRERKKKEKKQKPVLEEQVIKESDASKIPGKKVEPVPVTKQPTPPSEAAASKKKPGQKKSKNGSDDQDKKVETLMVPSKRQEALPLHQETKQESGSGKKKASSKKQKTENVFVDEPLIHATTYIPLMDNADSSPVVDKREVIDLLKPDQVEGIQKSGTKKLKTETDKENAEVKFKDFLLSLKTMMFSEDEALCVVDLLKEKSGVIQDALKKSSKGELTTLIHQLQEKDKLLAAVKEDAAATKDRCKQLTQEMMTEKERSNVVITRMKDRIGTLEKEHNVFQNKIHVSYQETQQMQMKFQQVREQMEAEIAHLKQENGILRDAVSNTTNQLESKQSAELNKLRQDYARLVNELTEKTGKLQQEEVQKKNAEQAATQLKVQLQEAERRWEEVQSYIRKRTAEHEAAQQDLQSKFVAKENEVQSLHSKLTDTLVSKQQLEQRLMQLMESEQKRVNKEESLQMQVQDILEQNEALKAQIQQFHSQIAAQTSASVLAEELHKVIAEKDKQIKQTEDSLASERDRLTSKEEELKDIQNMNFLLKAEVQKLQALANEQAAAAHELEKMQQSVYVKDDKIRLLEEQLQHEISNKMEEFKILNDQNKALKSEVQKLQTLVSEQPNKDVVEQMEKCIQEKDEKLKTVEELLETGLIQVATKEEELNAIRTENSSLTKEVQDLKAKQNDQVSFASLVEELKKVIHEKDGKIKSVEELLEAELLKVANKEKTVQDLKQEIKALKEEIGNVQLEKAQQLSITSKVQELQNLLKGKEEQMNTMKAVLEEKEKDLANTGKWLQDLQEENESLKAHVQEVAQHNLKEASSASQFEELEIVLKEKENELKRLEAMLKERESDLSSKTQLLQDVQDENKLFKSQIEQLKQQNYQQASSFPPHEELLKVISEREKEISGLWNELDSLKDAVEHQRKKNNDLREKNWEAMEALASTEKMLQDKVNKTSKERQQQVEAVELEAKEVLKKLFPKVSVPSNLSYGEWLHGFEKKAKECMAGTSGSEEVKVLEHKLKEADEMHTLLQLECEKYKSVLAETEGILQKLQRSVEQEENKWKVKVDESHKTIKQMQSSFTSSEQELERLRSENKDIENLRREREHLEMELEKAEMERSTYVTEVRELKDLLTELQKKLDDSYSEAVRQNEELNLLKAQLNETLTKLRTEQNERQKVAGDLHKAQQSLELIQSKIVKAAGDTTVIENSDVSPETESSEKETMSVSLNQTVTQLQQLLQAVNQQLTKEKEHYQVLE [KTN1]”, the “solubility change mitosis (log2)” value in the data set on HeLa Kyoto [1] stood at 0.0644. Further, the “solubility in G1/S (log2)” value with HeLa Kyoto [2] stood at 0.422. Moreover, the thermal stability score came out at 5.06 in the data set with HeLa Kyoto [3] (setting [5]) and 7.49 with HeLa Kyoto [3] (cell cycle stage: mitosis). Moreover, the figures for the melting temperature in the data set on HeLa Kyoto [4] (cell cycle stage: G1/S) and in the data set with HeLa Kyoto [4] (cell cycle stage: mitosis) were 50 °C and 50.6 °C, respectively.
In the case of “MEGAGENAPESSSSAPGSEESARDPQVPPPEEESGDCARSLEAVPKKLCGYLSKFGGKGPIRGWKSRWFFYDERKCQLYYSRTAQDANPLDSIDLSSAVFDCKADAEEGIFEIKTPSRVITLKAATKQAMLYWLQQLQMKRWEFHNSPPAPPATPDAALAGNGPVLHLELGQEEAELEEFLCPVKTPPGLVGVAAALQPFPALQNISLKHLGTEIQNTMHNIRGNKQAQGTGHEPPGEDSPQSGEPQREEQPLASDASTPGREPEDSPKPAPKPSLTISFAQKAKRQNNTFPFFSEGITRNRTAQEKVAALEQQVLMLTKELKSQKELVKILHKALEAAQQEKRASSAYLAAAEDKDRLELVRHKVRQIAELGRRVEALEQERESLAHTASLREQQVQELQQHVQLLMDKNHAKQQVICKLSEKVTQDFTHPPDQSPLRPDAANRDFLSQQGKIEHLKDDMEAYRTQNCFLNSEIHQVTKIWRKVAEKEKALLTKCAYLQARNCQVESKYLAGLRRLQEALGDEASECSELLRQLVQEALQWEAGEASSDSIELSPISKYDEYGFLTVPDYEVEDLKLLAKIQALESRSHHLLGLEAVDRPLRERWAALGDLVPSAELKQLLRAGVPREHRPRVWRWLVHLRVQHLHTPGCYQELLSRGQAREHPAARQIELDLNRTFPNNKHFTCPTSSFPDKLRRVLLAFSWQNPTIGYCQGLNRLAAIALLVLEEEESAFWCLVAIVETIMPADYYCNTLTASQVDQRVLQDLLSEKLPRLMAHLGQHHVDLSLVTFNWFLVVFADSLISNILLRVWDAFLYEGTKVVFRYALAIFKYNEKEILRLQNGLEIYQYLRFFTKTISNSRKLMNIAFNDMNPFRMKQLRQLRMVHRERLEAELRELEQLKAEYLERRASRRRAVSEGCASEDEVEGEA [TBC1D2]”, in the data set with HeLa Kyoto [1], the “solubility change mitosis (log2)” value was -0.0396. Besides, the “solubility in G1/S (log2)” value with HeLa Kyoto [2] is -0.179. For the same sequence, the thermal stability score in the data set on HeLa Kyoto [3] (setting [5]) was found to be 1.39; with HeLa Kyoto [3] (cell cycle stage: mitosis), 0.724. The melting temperature in the data set on HeLa Kyoto [4] (cell cycle stage: G1/S) was found to be 49.7 °C; with HeLa Kyoto [4] (cell cycle stage: mitosis) it was 49.4 °C.
With “MEGGGGRDEPSACRAGDVNMDDPKKEDILLLADEKFDFDLSLSSSSANEDDEVFFGPFGHKERCIAASLELNNPVPEQPPLPTSESPFAWSPLAGEKFVEVYKEAHLLALHIESSSRNQAAQAAKPEDPRSQGVERFIQESKLKINLFEKEKEMKKSPTSLKRETYYLSDSPLLGPPVGEPRLLASSPALPSSGAQARLTRAPGPPHSAHALPRESCTAHAASQAATQRKPGTKLLLPRAASVRGRSIPGAAEKPKKEIPASPSRTKIPAEKESHRDVLPDKPAPGAVNVPAAGSHLGQGKRAIPVPNKLGLKKTLLKAPGSTSNLARKSSSGPVWSGASSACTSPAVGKAKSSEFASIPANSSRPLSNISKSGRMGPAMLRPALPAGPVGASSWQAKRVDVSELAAEQLTAPPSASPTQPQTPEGGGQWLNSSCAWSESSQLNKTRSIRRRDSCLNSKTKVMPTPTNQFKIPKFSIGDSPDSSTPKLSRAQRPQSCTSVGRVTVHSTPVRRSSGPAPQSLLSAWRVSALPTPASRRCSGLPPMTPKTMPRAVGSPLCVPARRRSSEPRKNSAMRTEPTRESNRKTDSRLVDVSPDRGSPPSRVPQALNFSPEESDSTFSKSTATEVAREEAKPGGDAAPSEALLVDIKLEPLAVTPDAASQPLIDLPLIDFCDTPEAHVAVGSESRPLIDLMTNTPDMNKNVAKPSPVVGQLIDLSSPLIQLSPEADKENVDSPLLKF [GTSE1]”, the “solubility change mitosis (log2)” value in the data set on HeLa Kyoto [1] is 0.505. The “solubility in G1/S (log2)” value with HeLa Kyoto [2] worked out at 0.351. The thermal stability score in the data set on HeLa Kyoto [3] (setting [5]) is 0.104; in the data set on HeLa Kyoto [3] (cell cycle stage: mitosis) it was -0.0609. Further, the melting temperature with HeLa Kyoto [4] (cell cycle stage: G1/S) was 49 °C; with HeLa Kyoto [4] (cell cycle stage: mitosis), 50.3 °C.
“MEGGGGSGNKTTGGLAGFFGAGGAGYSHADLAGVPLTGMNPLSPYLNVDPRYLVQDTDEFILPTGANKTRGRFELAFFTIGGCCMTGAAFGAMNGLRLGLKETQNMAWSKPRNVQILNMVTRQGALWANTLGSLALLYSAFGVIIEKTRGAEDDLNTVAAGTMTGMLYKCTGGLRGIARGGLTGLTLTSLYALYNNWEHMKGSLLQQSL [TIMM23]”: the “solubility change mitosis (log2)” value in the data set with HeLa Kyoto [1] is -0.145. Further, in the data set with HeLa Kyoto [2], the “solubility in G1/S (log2)” value was determined as 0.455. Besides, the figures for the thermal stability score in the data set on HeLa Kyoto [3] (setting [5]) and in the data set on HeLa Kyoto [3] (cell cycle stage: mitosis) were -1.18 and -2.03, respectively. Also, the melting temperature in the data set with HeLa Kyoto [4] (cell cycle stage: G1/S) is 57.3 °C; in the data set on HeLa Kyoto [4] (cell cycle stage: mitosis), 55.6 °C.
On to “MEGGLGRAVCLLTGASRGFGRTLAPLLASLLSPGSVLVLSARNDEALRQLEAELGAERSGLRVVRVPADLGAEAGLQQLLGALRELPRPKGLQRLLLINNAGSLGDVSKGFVDLSDSTQVNNYWALNLTSMLCLTSSVLKAFPDSPGLNRTVVNISSLCALQPFKGWALYCAGKAARDMLFQVLALEEPNVRVLNYAPGPLDTDMQQLARETSVDPDMRKGLQELKAKGKLVDCKVSAQKLLSLLEKDEFKSGAHVDFYDK [SPR]”, for which the “solubility change mitosis (log2)” value in the data set with HeLa Kyoto [1] was -0.117. The “solubility in G1/S (log2)” value in the data set with HeLa Kyoto [2] is 0.0864. Moreover, the thermal stability score in the data set on HeLa Kyoto [3] (setting [5]) is -5.72; in the data set on HeLa Kyoto [3] (cell cycle stage: mitosis) it was -2.25. The melting temperature came out at 53.8 °C in the data set with HeLa Kyoto [4] (cell cycle stage: G1/S) and 52.3 °C in the data set with HeLa Kyoto [4] (cell cycle stage: mitosis).
